The test system of one data set is LPA mRNA. In words: In vivo efficacy in LPA-HDI mouse model (liver LPA mRNA). Further details: species or system BALB/c mouse. Conditions: 3 mg/kg single subcutaneous injection, Day 14, relative to PBS blank group, 4 mice per group. How it is done:
The knockdown effect of the test double-stranded siRNA conjugate on the target gene LPA upon entry into the mouse is evaluated by rapid high-pressure injection of the physiological saline containing recombinant plasmid pcDNA-LPA carrying the target gene via the tail vein.
pcDNA-LPA plasmid, BALB/c mouse, PBS (phosphate buffer), and conjugates of the present invention.
Six-week-old female BALB/c mice were ordered and acclimated/quarantined for three days upon arrival in the animal room.
On Day 0, the mice were randomly grouped based on body weight data. After grouping, all mice were given a single administration via subcutaneous injection, with a dose volume of 10 mL/kg. Mice in Group 1 received PBS; mice in the other groups received the conjugates (dissolved in PBS).
On Day 13 post-administration, all mice were injected with normal saline containing the pcDNA-LPA plasmid via the tail vein within 5 seconds. The injection volume (mL) = mouse body weight (g) × 8%. The amount of plasmid injected per mouse was 10 µg.
On Day 14 post-administration, all groups of mice were euthanized by CO2 inhalation, and 2 liver samples were collected from each mouse. Liver samples were treated overnight with RNAlater at 4 °C, then RNAlater was removed, and stored at -80 °C for detection of LPA gene expression levels.

Another data set deals with hPBMCs. In words: Immunogenicity test in hPBMCs (IL-6 and TNF-α ELISA of supernatant). The following applies: 18-20 h. Type of data set: cell-based, human. The method, then:
1 Experimental material • 1.1 Double-stranded siRNA conjugates • 1.2 hPBMCs, purchased from Shanghai Sailybio Medical Co., LTD. • 1.3 Main reagents: Penicillin-Streptomycin (Cat. No.: 15140122), RNase-free water (Cat. No.: AM9938), IL-6 ELISA kit (Cat. No.: 555220), TNF-α ELISA kit (Cat. No.: 555212), LPS (Cat. No.: L2630), etc. 2 Experimental method • 2.1 Compound Preparation: Compounds were prepared as stock solutions with enzyme-free water. Compound weight = powder weight * purity. The concentration of prepared solutions was 900 µg/mL, followed by three-fold serial dilution with enzyme-free water. Each concentration was diluted 10-fold with 1640 medium, resulting in a final enzyme-free water content of 5.0%. • 2.2 Experimental procedure: • 2.2.1 PBMC cells were resuscitated one day in advance and incubated overnight in 1640 complete medium. • 2.2.2 On the day of the experiment, PBMC cells were centrifuged at 300 × g for 8 minutes, and the cell density was adjusted to 1.6 × 10^6 mL with 1640 complete medium. The cells were then added to a 96-well plate, 125 µL per well, and incubated in a 37 °C, 5% CO2 incubator for 15 minutes. • 2.2.3 The diluted test compounds were added to the 96-well plate according to the plate map, all in duplicate, 125 µL for each well; the positive control group and the blank group were added with an equal volume of 1640 complete culture medium containing the same amount of enzyme-free water. • 2.2.4 After gently shaking, the well plates were incubated in an incubator at 37 °C for 18-20 h. The supernatant was collected by centrifugation, and secretions of TNF-α and IL-6 were detected by ELISA. • 2.2.5 Data were analyzed using GraphPad Prism 8 software. 3 Experimental results Table 10. IL-6 and TNF-α levels in the cell supernatant of donor 1 hPBMCs treated with different doses of test compounds
In general terms: In an ELISA, binding on a coated surface is turned into a signal by an enzyme label.

The subject of data set [1] is human LPA gene (Genbank number: NM_005577.4). As to the kind of experiment: Inhibitory activity against LPA mRNA, psiCHECK-2 dual-luciferase reporter vector in Huh7 cells. The following applies: Huh7 cells transfected with LPA_psiCHECK-2 plasmid, RNAiMAX transfection. The format is cell-based. In short, it runs like this: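 Huh7 cells transfected with psiCHECK-2 carrying human LPA, then treated next day with compounds (3 concentrations) delivered by RNAiMAX. Dual-Glo readout of firefly and Renilla luciferase per well. Percent inhibition calculated from the reporter ratio relative to the RNAiMAX control.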
A general note: A reporter such as luciferase makes a cellular process visible.

Data set [2] in a line: Melting temperature (Tm) by UV absorption at 260 nm. Type of data set: physicochemical. The following applies: phosphate buffer solution; average of at least two independent measurements. How it is done: The Tm value was determined by recording the change in UV absorption at 260 nm of DNA/RNA in phosphate buffer solution as the temperature increased.
Table 6 Melting temperature (Tm) test instrument parameters
The melting temperature (Tm) was calculated from the first derivative of the smoothed heating curve, and the reported value was the average of at least two independent measurements. Table 7 Melting temperatures (Tm) of conjugates of the present disclosure

For “Z43: siRNA conjugate: sense SEQ ID NO:49, ligand D01 at 3' end of sense strand, antisense SEQ ID NO:81 (sense CAGCCCCTTATTGTTATACGA; antisense NCGTATNACAATAAGGGGCNGTT; ligand D01 at sense 3' end; listed as RNA; modified_base 1: mod_base = OTHER; note = 2'-O-methylcytidine; modified_base 2: mod_base = OTHER; note = 2'-O-methyladenosine; modified_base 3: mod_base = OTHER; note = 2'-O-methylguanosine; modified_base 4..7: mod_base = OTHER; note = 2'-O-me; note = n is B30; note = 2'-deoxycytidine; modified_base 4: mod_base = OTHER; note = 2'-O-methyluridine; m)”, the “% Downregulation of LPA mRNA” value with LPA mRNA was 84.5%. The IL-6 is on record as 1270.9 pg/mL in the data set on hPBMCs (donor 1 hPBMCs, 5 µg/mL); 1339.1 pg/mL in the data set with hPBMCs (donor 1 hPBMCs, 15 µg/mL); 1314.4 pg/mL in the data set on hPBMCs (donor 1 hPBMCs, 45 µg/mL). The TNF alpha with hPBMCs (donor 1 hPBMCs, 5 µg/mL) is given as 35.4 pg/mL; in the data set on hPBMCs (donor 1 hPBMCs, 15 µg/mL) it was 36.9 pg/mL; with hPBMCs (donor 1 hPBMCs, 45 µg/mL) it was 32.2 pg/mL. The EC50 – broadly, the concentration needed to bring the measured effect to its halfway point – in data set [1] was 0.09 nM.

Take “Z47: siRNA conjugate: sense SEQ ID NO:51, ligand D01 at 3' end of sense strand, antisense SEQ ID NO:83 (sense CCTGCCAAGCTTGGTCATCTA; antisense NAGATGNCCAAGCTTGGCNGGTT; ligand D01 at sense 3' end; listed as RNA; modified_base 1..2: mod_base = OTHER; note = 2'-O-methylcytidine; modified_base 3: mod_base = OTHER; note = 2'-O-methyluridine; modified_base 4: mod_base = OTHER; note = 2'-O-methylguanosine; modified_base 5..6: mod_base = OTHER; note = 2'-O-m; modified_base 1: mod_base = OTHER; note = n is B33; modified_base 2: mod_base = OTHER; note = 2'-deoxyadenosine; note = 2'-O-methyladenosine)”: in the data set with LPA mRNA, the “% Downregulation of LPA mRNA” value worked out at 64.0%. Also, the IL-6 came out at 49.9 pg/mL in the data set on hPBMCs (donor 2 hPBMCs, 5 µg/mL); 0.0 pg/mL with hPBMCs (donor 2 hPBMCs, 15 µg/mL); 16.7 pg/mL in the data set on hPBMCs (donor 2 hPBMCs, 45 µg/mL). Besides, the TNF alpha in the data set on hPBMCs (donor 2 hPBMCs, 5 µg/mL) was 15.6 pg/mL; with hPBMCs (donor 2 hPBMCs, 15 µg/mL), 3.4 pg/mL; with hPBMCs (donor 2 hPBMCs, 45 µg/mL), 9.5 pg/mL. Besides, in data set [1], the EC50 worked out at 0.2 nM.

Consider “Z48: siRNA conjugate: sense SEQ ID NO:51, ligand D01 at 3' end of sense strand, antisense SEQ ID NO:84 (sense CCTGCCAAGCTTGGTCATCTA; antisense NAGATGNCCAAGCTTGGCNGGTT; ligand D01 at sense 3' end; listed as RNA; modified_base 1..2: mod_base = OTHER; note = 2'-O-methylcytidine; modified_base 3: mod_base = OTHER; note = 2'-O-methyluridine; modified_base 4: mod_base = OTHER; note = 2'-O-methylguanosine; modified_base 5..6: mod_base = OTHER; note = 2'-O-m; modified_base 1: mod_base = OTHER; note = n is B34; modified_base 2: mod_base = OTHER; note = 2'-deoxyadenosine; note = 2'-O-methyladenosine)”, for which the “% Downregulation of LPA mRNA” value in the data set on LPA mRNA came to 64.0%. For the same substance, the IL-6 with hPBMCs (donor 2 hPBMCs, 5 µg/mL) came to 32.0 pg/mL; with hPBMCs (donor 2 hPBMCs, 15 µg/mL), 49.5 pg/mL; in the data set with hPBMCs (donor 2 hPBMCs, 45 µg/mL), 1.1 pg/mL. Further, the TNF alpha in the data set on hPBMCs (donor 2 hPBMCs, 5 µg/mL) is listed as 15.3 pg/mL; with hPBMCs (donor 2 hPBMCs, 15 µg/mL), 20.4 pg/mL; with hPBMCs (donor 2 hPBMCs, 45 µg/mL), 5.9 pg/mL. In data set [1], the EC50 worked out at 0.09 nM.

Turning to “Z54: siRNA conjugate: sense SEQ ID NO:49, ligand D01 at 3' end of sense strand, antisense SEQ ID NO:90 (sense CAGCCCCTTATTGTTATACGA; antisense NCGTATNACAATAAGGGGCNGTT; ligand D01 at sense 3' end; listed as RNA; modified_base 1: mod_base = OTHER; note = 2'-O-methylcytidine; modified_base 2: mod_base = OTHER; note = 2'-O-methyladenosine; modified_base 3: mod_base = OTHER; note = 2'-O-methylguanosine; modified_base 4..7: mod_base = OTHER; note = 2'-O-me; note = n is B33; note = 2'-fluorocytidine; modified_base 4: mod_base = OTHER; note = 2'-O-methyluridine;)”, the “Melting temperature Tm” value in data set [2] turned out to be 69.00 °C.

For the substance “Z56: siRNA conjugate: sense SEQ ID NO:43, ligand D01 at 3' end of sense strand, antisense SEQ ID NO:92 (sense CAGCCCCTTATTGTTANACGA; antisense TCTCGTATAACAATAAGGGGCTG; ligand D01 at sense 3' end; listed as RNA; modified_base 1: mod_base = OTHER; note = 2'-O-methylcytidine; modified_base 2: mod_base = OTHER; note = 2'-O-methyladenosine; modified_base 3: mod_base = OTHER; note = 2'-O-methylguanosine; modified_base 4..7: mod_base = OTHER; note = 2'-O-me; note = 2'-O-methyluridine; modified_base 4: mod_base = OTHER; note = 2'-fluorocytidine; modified_base 5: mod_base = OTHER; note = 2'-O-methylg)”, the “Melting temperature Tm” value in data set [2] was determined as 77.25 °C.

The values are drawn from patent EP4707393A1, “DOUBLE-STRANDED SIRNA, CONJUGATE THEREOF AND USE THEREOF” (CMS Research & Development Pte. Ltd., priority 2023, dated 2024).
